experiment: yeast display, Sf9 membrane polyspecificity reagent, FACS + sequencing; frameworks hold sequencing errors
In short: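 Using colony PCR, genes from sorted yeast display clones were amplified, then sequenced on MiSeq at 2 × 250 and filtered by CDR length. The clones had been stained with 10% biotinylated, detergent-solubilized Sf9 membrane reagent for 1 hour at 4 °C and sorted by FACS into low and high (top ~1%) gates on anti-HA and streptavidin fluorescence. Polyreactivity labels come from the gate of origin.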

Sequence | polyreactivity (PSR sort gate)
QVQLVESGGGLVQAGGSLRLSCAASGRTFPYNFMGWYRQAPGKERELVAGITGSGDSTFYADSVKGRFTISRDNAKNTVYLQMNSLKPEDTAVYYCAARYRTLNDGYNRNYWGQGTQVTVSS | low polyreactivity
QVQLVESGGGLVQAGGSLRLSCAASGFTFVTNAMGWYRQAPGKERELVAAISRRGGSTYYADSVKGRFTISRDIAKNTVNLEMNSLKPEDTAVYYCNADRQRRRQFSFSSPYDYWGQGTLVTVSS | high polyreactivity
QVQLVESGGGLVQAGGSLRLSCAASGSTFGYNDMGWYRQAHGKERELVAVIDSGGSTNYADSVKGRFTISRDNAKNTVYLQMNSLKPEDTAVYYCAADRDKGNGADVWYGYDYWGQGTQVTVSS | low polyreactivity
QFQLVESGGGLVQAGGSLRLSCASSGSIFWYYAMGWYRQAPGKERELVATITSGGRTDYADSVKGRFTISRDNAKNTVYLQMNSLKPEDTAVYFCAAGPRWRPRSYDYWGHGTQVTVSS | high polyreactivity
QVQLVESGGGLVQAGGSLRLSCAASGFTFSRYTMGWYRQAPGKERELVAAISFSGVRTYYADSVKGRFTISRDNAKNSVYLQMNSLKPEDTAVYYCNRVSRTRGLNLYDYWGQGTQVTVSS | high polyreactivity
QVQLVESGGGLVQAGGSLRLSCAASGITFGGYAMGWYRKARGKERELVAAISWRGGRTYYADSVKGRFTISRDNAKNTVYIQMNSLKPDDTAVYYCAVGGTVYSTESDYWGQGTQVTVSS | high polyreactivity
QDELVESGGGLVQAGGSLRLSCAASGRIFPFYAMGWNRQAPGKERDFVAAITYSGGNTNYADSVKGRFTISRDNAKNTVYLQMNSLKPEDTAVYYCAAVLGYGDYYQEDYWGQGTQVTVSS | low polyreactivity
QVQLVESGGGLVQAGGSLRLTCAASGFIFVTYAMGWYRQPPGKERELVAAITNSGGTTYYADSVKGRFTISRDNAKNTVYLQMNSLKPEDTAVYYCNIPYGAETAHREFDYWGQGTQVTVSS | low polyreactivity
QVQLVESGGGLDQAGGSLRLSCAASGRTFSWYAMGWYRQAPGKERELVAAITYSGGNTYYAHSVKGRFTISRDNAKITVYLLRNSLKPDDNAVYYCAAPSLIAKYEYWGQGTQVTVSS | high polyreactivity
QVQLVESGGGLVQAGGSLRLSCAASGRTFWVYAMGWYRQAPGKERELVASISWSVGSTYYADSVKGRFTISRDNAKNTVYLQMNSLKPEDTAVYYCAVDPATNVEGDYWGQGTQVTVSS | low polyreactivity
QVQLVESVGGLVQAGGSLRLSCAASGRRTIRYNAMGWYRQAPGKEREFVASISRSGGSTYYADSVKGRFTISRDNAKNTVYLQMNSLKPEDTAVYYCAAAASHLVAYGWGYEYYYWGQGTQVTVSS | high polyreactivity
QVQLVESGGGLVQAGGSLRLSCAASGNIFYWYAMGWYRQAPGKEREFVAAITRSGGSTSYADSVKGRFTISRDNAKNTVYLQMNSLKPEDTAVYYCNATHWVHFQEFYSWGPGTQVTVSS | low polyreactivity
QVQLVESGGGLVQAGGSLRLSSAASGSILYVYAMGWYRQAPGKERELVAVITSGGSTNYADSVKGRFTISRDNAKNTVYLQMNSLKPEDTAVYYCAADPYSVYGGDYWGQGTQVTVSS | low polyreactivity
QVQLVESGGGLVQAGGSLRLSCAASGYTFAWYAMGWYRQAPGKERELVAAITVSGGSTYYADSVKGRFTISRDNAKNTVYLQMNSLKPEDTAVYYCAAVGKSPSRFGYWGQGTQVTVSS | low polyreactivity
QVQLVESGGGLVQAGGSLRLSCAASGFIFADNPMGWYRQAPGKERELVAGITSGGITNYADSVKGRFTISRDNAKNTVYLQMNSLKPEDTAVYYCAVYYRRWFSRYDYWGQGTQVTVSS | low polyreactivity
QVQLVESGGGLVQAGGSLRLICAASGSIFGDTAMAWYSQAPGKERELVATISSSDASTYYADSVKGRFTSSRDNAKNTVYLQMNSVKREDSAVYYCAKEVNAGYHVWYDYWGEGTQVTVSS | low polyreactivity
QVQLLESGGGLVQARGSLRLSCAASARTIFKNAMAWYRQAPGKERELVARISWNGGDSTYYADSVTGRFTISRDNAKNTVYLQMNSLKPEDTAVYSCAADTSYRPGGSRQGYGYWGQGTQVTVSS | low polyreactivity
QVQLVESGGGLVQAGGSLRLSCAASGRTFTPNVMGWYRQAPGKERELVAAITQSGGRTYYADSVKGRFTISRDNAKNTVYLQMNSLKPEDTAVYYCNAERAGTYRYDYWGQGTQVTVSS | high polyreactivity
QVQLVESGGGLVQAGGSLRLSCAASGSTFTYYAMGWYRQAPGKERELVAAISRGGRTNYADSVKGRFTISRDNAKNTVYLQMNSLKPEDTAVYFCAAVVFRTGIWFDYWGQGTQVTVSS | high polyreactivity
QVQLVESWGGLVQAGGTLRLSCAPSGYIFYFNDMGCYIQAPGKERELVAAITWSGTGTYYADSVKGRFTISRDNAKNTVYLQMNSLKPEDTAVYYCAAREWTSQDRQHNYWGQGTQVTVSS | low polyreactivity
QVQLVESGGGLVQAGGSLRLSCAASGYIFGYYVMGWYRQARGKERELVAAISDSDITYYADSVKGRFTISRDNAKNTVSLQMNSLKPEDTAVYYCNADFGYWWDGRRYDYWGQGTQVTVSS | low polyreactivity
QVQLVESGGGLVQAGGSLRLSCAASGSIFWPYAMGWYRQAPGKERELVAAISSSTGRTYYADSVKGRFTLSRDNEKNTVYLQMNSLKPEDTAVDYCAADIGTTSYRYYYWGQGTQVTVSS | high polyreactivity

Sequence | polyreactivity (PSR sort gate)
QVQLVESGGGLVQAGGSLRLSCAASGTITSYAMGWYRQAPGKERELVASIRYRGGSTYYADSVKGRFTISRDNAKNTVYLQMNSLKPEDTAVYYCAADNFAPEFYYWGQGTQVTVSS | low polyreactivity
QVQLVESGGGLVQAGGSHRLSCAASGRILYGYAMGWYRQAPGQERELVASITWSGGSTYADSVKGRFTISRDNAKNTVYLQMKSLKPEDTAVYYCATRRGPKWQWLTYGYWGLGTQVTVSS | low polyreactivity
QVQLVESGGGLVQAGGSLRLSCAASGRTFYKYAMGWYRQAPGKERELVAAISSRGGRTYYADSVKGRFTISRDNAKNTVYLQMNSLKPEDTAVYYCAAKGRPDGKYDYWGQGTQVTVSS | high polyreactivity
QVQLVESGGGLVQAGGSLRLSCAASGSTFYRYAMGWYRQAPGKEREFVAAISGSGGSTRYADSVKGRFTISRDNAKNSVFLQMNSLKPEDTAVYYCAARSRYGYSTFDYWGHGTQVTVSS | high polyreactivity
QVQLVESGGGLVQAGGSLRLSCAASGRTFCGYTMGWYRQAPGKERELVAAITKRGGSTYYADSVKGRFTISRDNAKNTVYLQMNSLKPEDTAVYYCAKTKTAGTIKYDYWGQGTQVTVSS | high polyreactivity
QVQLVESGGGLVQARGSLRLSCAASGLTFRIYAMGWYRQAPGKERELVAAITRGGSTYADSVKGRFTISRDNAKNTVYLQMNSLKPEDTAVYYCAARVRSTSQVSASPVWYYYWGLGTQVTVSS | high polyreactivity
QVQLVESGGGLVQAGGTLRLSCAASGSTFSYNAMGWYRQAPGKERELVAAISGSGGRTYYADSVKGRFTISRDNAKNTVYLQMNSLKPEDTAVYYCAARVGAGWSPKYDYWGQGTQVTVSS | high polyreactivity
QVQLVESGGGLDQAGGSLRLICAASGIIFASNAMGWYRQAPGKERELVATITGSVAGTYYADSVKGRFTISRDNAKPTVYLQMNSLKPEDTAVYDCAAKRGWNVAGYDYWGQRTQVTVSS | low polyreactivity
QVQLVESGGGLVQAGGSLRLSCAASGSILWLNAMGWYRQAPGKERELVADITRGGSTYYADSVKGRFTISRDNAKNTVYLQMNSLTPEDTAVYYCAADAYTCQIPYYYFEHYYWGQGTQVTVSS | high polyreactivity
QVQLVESGGGLVQAGGSLRLSCAASGSTFGSYAMGWYRQAPGKERELVAGISWSGGRTYYADSVKGRFTISRDNAKNTVYLQMNSLKPEDTAVYYCARDTGYYYARYNYWGQGTQVTVSS | low polyreactivity
QVQLVESGGGLVQAGGSLRLSCAASGSTFLDYTMGWYRHAPGKERELVAVIYYRAGSTYYADSVKGRFTISRDNAKNTVYLQMNSLKPEDTAVYYCNADYYNFWRRRRYLWYESWGQGTQVTVSS | low polyreactivity
QVQLVESGGGLVQAGGSLRLSCAASGRTFFEYAMGWYRQAPGKEMDLVAIITNGATTNYADSVKGRFTISRDNAKNTVYLQMNSLKPEDTAVYYCAVAKWQPRRRKYYYWGQGTQVTVSS | high polyreactivity
QVQLVESGGGLVQAGGSLRLSCAASGFIFRVNAMGWYRQAPGKERELVATITWNGGSTYYADSVKGRFTISRDNAKNTVYLQMNSLKPEDTAVYYCNRVRYRGYYPGPYSYSYDYWGQGTQVTVSS | low polyreactivity
QVQLVESGGGLVQAGGSLRLSCAASGRTFVPNAMGWYRQAPGKERELVAAISDSGGSTYYADSVKGRFTISRDNAKNTVYLQMNSLKPEDTAVYYCATDGTTYVGWEHGFNYWGQGTQVTVSS | low polyreactivity
QVQLVESGGGLVQAGGSLRLSCAASGRTFGGYAMGWYRQAPGKERELVAAISSGGGTYADSVKGRFTISRDNAKNTVYLQMNSLKPEDTAVYYCAAGSRWYWAYKPTVHYYYWGQGTQVTVSS | high polyreactivity
QVQLVESGGGLVQAGGSLRLSCAASGSIFGQYAMGWYRQAPGKERELVAAITWDGTSTYYADSVKGRFTISRDNAKNTVYLQMNSLKPEDTAVYYCAADFYPYSWEEVDYWGQGTQVTVSS | low polyreactivity
QVQLVESGGGLVQAGGSLRLSCAASGFIFWENAMGWSRQAPGKERELVAAISKSGTRTYYADSVKGRFTISRDNAKNTVYLQMNSLKPEDTAVYYCAAEGSGYEYYYWGQGTQVTVSS | high polyreactivity
QVQLVDSGGGLVQAGGSLRLICAASGRIFIYNAMGWYRQAPGKERELVAAITRGGNTNYADSVKGRFTISRDNAKNTVYLQMNSLKPEDTAVYYCAAAIRYGSRHRGYWGQGTQVTVSS | low polyreactivity
QVQLVESGGGLVQAGGSLRLSCAASGRIFQKNAMGWYRQAPGKERELVAAISSGGSTNYADSVKGRFTISRDNAKNTVYLQMNSLKPEDTAVYYCAVESVYEYGGYVDSAYDYWGQGTQVTVSS | low polyreactivity
QFQLVESGGGLVQAGGSLRLSCAASGSIFSINAMGWYRQAPGKERELVAVISWIGGNTYYADSVKGRFTISRDNAKNTVYLQMNSLKPEDTAVYYCAVATGPVSYRRYYWGQGTQVTVSS | high polyreactivity
QVQIVESGGGSVQAGGSLRLSCADSGFTFRKNAMGWYRQAPGKERELVAAISVSGGRTYYADSVKVRFTISRDNAKNTFYLQMNSLKPEETAVYYCAARRYVLVHKYDYWGQGTQVTVSS | high polyreactivity
